Data taken from doi:10.1101/2024.04.22.590578.

Experiments:
Assay in all cases: crystal structure
[1] = target: SARS-CoV-2 M^pro G15S (SARS-CoV-2)
[2] = target: SARS-CoV-2 M^pro M49I (SARS-CoV-2)
[3] = target: SARS-CoV-2 M^pro P132H (SARS-CoV-2)
[4] = target: SARS-CoV-2 M^pro V186F (SARS-CoV-2)
[5] = target: SARS-CoV-2 M^pro Y54C (SARS-CoV-2)
[6] = target: SARS-CoV-2 M^pro S46F (SARS-CoV-2)
[7] = target: SARS-CoV-2 M^pro K90R (SARS-CoV-2)

Substance: SARS-CoV-2 M^pro G15S (enzyme)
- stoichiometry N [1]: 2

Substance: SARS-CoV-2 M^pro M49I (enzyme)
- stoichiometry N [2]: 2

Substance: SARS-CoV-2 M^pro P132H (enzyme)
- stoichiometry N [3]: 2

Substance: SARS-CoV-2 M^pro V186F (enzyme)
- stoichiometry N [4]: 2

Substance: SARS-CoV-2 M^pro Y54C (enzyme)
- stoichiometry N [5]: 2

Substance: SARS-CoV-2 M^pro S46F (enzyme)
- stoichiometry N [6]: 2

Substance: SARS-CoV-2 M^pro K90R (enzyme)
- stoichiometry N [7]: 2
